Assay [1] has as its target human FcγRIIb (human) (UniProt P31994). In words: flow cytometry on FcγRIIb transfectants. On the technique in general: A flow cytometer gives signals particle by particle.
Assay [2] has as its target human FcγRIIa, H131 allele (human) (UniProt P12318). In words: flow cytometry on FcγRIIa (H131) transfectants.
Assay [3] concerns the target human FcγRIIa, R131 allele (human) (UniProt P12318). Nature of the assay: flow cytometry on FcγRIIa (R131) transfectants.
For assay [4], the target named is human FcγRIIb (human) (UniProt P31994). Nature of the assay: flow cytometry, background staining on EBV-transformed B cells of 2B.1/2B.1 donors.
Assay [5] shares this target. Nature of the assay: flow cytometry, background staining on EBV-transformed B cells of 2B.1/2B.4 donors.
Assay [6] shares this target. Nature of the assay: flow cytometry, background staining on EBV-transformed B cells of a 2B.4/2B.4 donor.
Assay [7] shares this target. Nature of the assay: flow cytometry, background staining on peripheral B lymphocytes of 2B.1/2B.1 donors.
The target is the same in assay [8]. In words: flow cytometry, background staining on peripheral B lymphocytes of 2B.1/2B.4 donors.

Some results are limits rather than exact numbers.

Sequence of UniProt P31994 (P31994 43-310): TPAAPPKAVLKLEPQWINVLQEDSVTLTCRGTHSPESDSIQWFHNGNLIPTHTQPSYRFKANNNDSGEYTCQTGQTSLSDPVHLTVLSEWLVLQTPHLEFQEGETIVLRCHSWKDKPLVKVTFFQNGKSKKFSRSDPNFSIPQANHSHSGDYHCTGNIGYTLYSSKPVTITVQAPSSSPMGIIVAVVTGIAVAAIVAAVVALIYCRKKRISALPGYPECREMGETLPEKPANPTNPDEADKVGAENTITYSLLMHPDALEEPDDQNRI

As for mAb AT-10 (antibody), the fold staining against mAb IV.3 with human FcγRIIb (human) [1] stood at 10 fold. The fold difference against mAb IV.3 in assay [2] and in assay [3] was less than 2 fold each time.
On to mIgG1 isotype control (antibody), for which the MFI in the assay with human FcγRIIb (human) [4] came out at 3.6 MFI; with human FcγRIIb (human) [5], 3.6 MFI; in the assay with human FcγRIIb (human) [6], 3.9 MFI; with human FcγRIIb (human) [7], 4.1 MFI; with human FcγRIIb (human) [8], 3.9 MFI.

The record behind these values is patent publication US20080248465A1.
